Measurements published in paper PMC8113581 (Nature Communications, 2021).

Target: T1, SARS-CoV-2 Spike S1+S2 ECD, his Tag protein (SARS-CoV-2, Wuhan-Hu-1, UniProt P0DTC2)
T1 construct: also called full-length S protein; full-length S-his; source: bought: Sino Biological
Test: ELISA
Conditions: both partners purified

B1: P4A1 (antibody, V domains shown)
VH: EVQLVESGGGLIQPGGSLRLSCAASGFIVSSNYMSWVRQAPGKGLEWVSIIYSGGSTFYADSVKGRFTISRDNSKNTLYLQMNSLRVEDTAVYYCARDLQELGSLDYWGQGTLVTVSS
VL: DIQMTQSPSSVSASVGDRVTITCRASQGISSWLAWYQQKPGKAPKLLIYAASSLQSGVPSRFSGSGSGTDFTLTISSLQPEDFATYYCQEANSFPYTFGQGTKLEIK
notes: also called P4A1 (IgG1); IgG1 form P4A1
**Q.** Does B1 bind?
**A.** binds
